Experimental findings from patent US20020146411A1, “Anticoagulant agents useful in treatment of thrombosis” (SmithKline Beecham Corporation, priority 1996, published 2002) are described below.

The subject of one experiment is BC2 antibody. Kind of experiment: BiaCore binding of Factor IX/Factor VII constructs to immobilized BC2. As to conditions: 200 nM construct, 25 mM MOPS pH 7.4, 0.15 M NaCl, 5 mM CaCl2. As for the experimental part:
A library of chimeric constructs composed of sequences of Factor IX spliced into the framework of the homologous protein Factor VII was constructed and used to map the epitope for the Factor IX BC2 mAb. See Cheung et al., Thromb. Res. 80, 419-427 (1995). Binding was measured using a BiaCore 2000 surface plasmon resonance device. The BC2 antibody was coupled directly to the chip using the NHS/EDC reaction. Binding was measured by 2 min of contact time at 20 uL/min with 200 nM of each of the given constructs in 25 mM MOPS, pH 7.4, 0.15 M NaCl, 5 mM CaCl2. Dissociation was monitored for 3 min using the same buffer with no protein. No binding was detected to the wild type construct in the presence of 50 mM EDTA.
For orientation: In SPR one partner is held on a chip, and binding of the other changes the refractive index at the surface.

Experiment [1] has as its target T1, Recombinant human Factor IX (rhFIX) (Homo sapiens, UniProt P00740, T194A).
T1 construct: purchased Genetics Institute
The experiment in a line: BIAcore kinetics of Factor IX binding to mAb on protein A surface. As to conditions: rhFIX 49 nM, 5 mM Ca2+, biosensor. As for the experimental part: The kinetics of Factor IX binding to SB 249417 was assessed by BIAcore analysis with antibody bound to an immobilized protein A surface. Recombinant human Factor IX (rhFIX, Genetics Institute) at 49 nM was used and measurements performed in the presence of 5 mM Ca^2+. The interaction was characterized by rapid association, kass 2.0×10^5 M^−1 s^−1 and relatively slow off-rate, kdiss=4.1×10^−4 s^−1.

The test system of experiment [2] is rat carotid artery thrombosis. The experiment in a line: Rat carotid artery thrombosis model, humanized mAbs, Example 8. Format: in vivo. As to conditions: 3.0 mg/kg i.v. bolus, 60 minutes after onset of injury. The method, then:
In order to evaluate the efficacy of humanized anti-Factor IX antibodies in prevention of arterial thrombosis, the rat carotid artery thrombosis model as described above in Example 3 was used. Baseline parameters were established for carotid blood flow, arterial pressure, heart rate, vessel patency and activated partial thromboplastin time (aPTT). Fifteen minutes thereafter, carotid injury was effected for […]. The parameters were determined 60 minutes after onset of carotid injury. Carotid thrombus was also extracted from the carotid artery and weighed.
All agents were administered intravenously 15 minutes before the onset of carotid injury. The following treatments were examined and compared to the anti-Factor IX mAb BC2.

Entries after “also recorded” stand apart in the source; their conditions may differ.

T1 sequence (P00740 47-461 T194A): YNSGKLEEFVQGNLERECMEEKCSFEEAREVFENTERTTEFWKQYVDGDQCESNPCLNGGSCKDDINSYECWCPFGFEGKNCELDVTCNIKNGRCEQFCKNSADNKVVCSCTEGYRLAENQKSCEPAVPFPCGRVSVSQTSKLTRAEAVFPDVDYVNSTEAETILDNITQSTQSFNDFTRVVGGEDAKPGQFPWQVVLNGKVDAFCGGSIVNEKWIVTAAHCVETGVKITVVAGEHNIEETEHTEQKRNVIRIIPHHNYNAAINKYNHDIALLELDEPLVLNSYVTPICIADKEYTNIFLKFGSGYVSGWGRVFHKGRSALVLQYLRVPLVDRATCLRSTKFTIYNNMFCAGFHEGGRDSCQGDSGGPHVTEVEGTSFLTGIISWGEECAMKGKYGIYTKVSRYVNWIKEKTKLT

B1: IX LC/VII HC: construct containing the Factor IX light chain and Factor VII heavy chain (protein)
chain: YNSGKLEEFVQGNLERECMEEKCSFEEAREVFENTERTTEFWKQYVDGDQCESNPCLNGGSCKDDINSYECWCPFGFEGKNCELDVTCNIKNGRCEQFCKNSADNKVVCSCTEGYRLAENQKSCEPAVPFPCGRVSVSQTSKLTRIVGGKVCPKGECPWQVLLLVNGAQLCGGTLINTIWVVSAAHCFDKIKNWRNLIAVLGEHDLSEHDGDEQSRRVAQVIIPSTYVPGTTNHDIALLRLHQPVVLTDHVVPLCLPERTFSERTLAFVRFSLVSGWGQLLDRGATALELMVLNVPRLMTQDCLQQSRKVGDSPNITEYMFCAGYSDGSKDSCKGDSGGPHATHYRGTWYLTGIVSWGQGCATVGHFGVYTRVSQYIEWLQKLMRSEPRPGVLLRAPFP
With B1, in the experiment with BC2 antibody, the “Degree of Binding to BC2” value was “exhibit binding to BC2; also recorded: Binds”.

B2: IX-A/VII: construct with the Factor IX gla and aromatic stack domains in Factor VII (protein)
chain: YNSGKLEEFVQGNLERECMEEKCSFEEAREVFENTERTTEFWKQYVDGDQCASSPCQNGGSCKDQLQSYICFCLPAFEGRNCETHKDDQLICVNENGGCEQYCSDHTGTKRSCRCHEGYSLLADGVSCTPTVEYPCGKIPILEKRNASKPQGRIVGGKVCPKGECPWQVLLLVNGAQLCGGTLINTIWVVSAAHCFDKIKNWRNLIAVLGEHDLSEHDGDEQSRRVAQVIIPSTYVPGTTNHDIALLRLHQPVVLTDHVVPLCLPERTFSERTLAFVRFSLVSGWGQLLDRGATALELMVLNVPRLMTQDCLQQSRKVGDSPNITEYMFCAGYSDGSKDSCKGDSGGPHATHYRGTWYLTGIVSWGQGCATVGHFGVYTRVSQYIEWLQKLMRSEPRPGVLLRAPFP
As for B2, the “Degree of Binding to BC2” value with BC2 antibody is recorded as “exhibit binding to BC2; also recorded: Binds”.

B3: SB 257732: humanized anti-Factor IX mAb, heavy chain F9HZHC 3-0 (SEQ ID NO: 89), light chain F9HZLC 3-0 (SEQ ID NO: 99) (antibody, V domains shown)
VH: MGWSCIILFLVATATGVHSQIQLVQSGSELKKPGASVKVSCKASGYTFTNYGMNWVRQAPGQGLEWMGWINTRNGKSTYVDDFKGRFVFSLDTSVSTAYLQISSLKAEDTAVYFCTREGNMDGYFPFTYWGQGTLVTVSS
VL: MGWSCIILFLVATATGVHSQIVLTQSPSSLSASVGDRVTITCRASSSVNYMHWYQQKPGKAPKPWIYATSNLASGVPSRFSGSGSGTDYTLTISSLQPEDFATYYCQQWSINPRTFGGGTKLEIKRTVV
On to B3, for which, in experiment [1], the kass was 1.1e+06 M⁻¹ s⁻¹ and the kdiss stood at 0.0012 s⁻¹.

B4: SB 249413: humanized anti-Factor IX mAb, heavy chain F9HZHC 1-0 (SEQ ID NO: 31), light chain F9HZLC 1-0 (SEQ ID NO: 44) (antibody, V domains shown)
VH: QVQLVQSGSELKKPGASVKVSCKASGYTFTNYGMNWVRQAPGQGLEWMGWINTRNGKSTYVDDFKGRFVFSLDTSVSTAYLQISSLKADDTAVYYCAREGNMDGYFPFTYWGQGTLVTVSS
VL: EIVLTQSPATLSLSPGERATLSCRASSSVNYMHWYQQRPGQAPRLLIYATSNLASGIPARFSGSGSGTDFTLTISSLEPEDFAVYYCQQWSINPRTFGGGTKVEIKR
Take B4: in experiment [1], the kass amounted to 650000 M⁻¹ s⁻¹ and the kdiss turned out to be 0.0028 s⁻¹. Further, the “effect on aPTT (FIG. 8)” value in experiment [2] is recorded as “modest effect”.

B5: SB 249415: humanized anti-Factor IX mAb, heavy chain F9HZHC 1-1 (SEQ ID NO: 52), light chain F9HZLC 1-1 (SEQ ID NO: 57) (antibody, V domains shown)
VH: QVQLVQSGSELKKPGASVKVSCKASGYTFTNYGMNWVRQAPGQGLKWMGWINTRNGKSTYVDDFKGRFVFSLDSSVSTAYLQISSLKADDTAVYYCTREGNMDGYFPFTYWGQGTLVTVSS
VL: EIVLTQSPATLSLSPGERATLSCRASSSVNYMHWYQQRPGQAPKPWIYATSNLASGVPARFSGSGSGTDFTLTISSLEPEDFAVYYCQQWSINPRTFGGGTKVEIKR
As to B5, in experiment [1], the kass stood at 750000 M⁻¹ s⁻¹ and the kdiss is 0.00018 s⁻¹. Also, the “effect on aPTT (FIG. 8)” value in experiment [2] was “modest effect”.

B6: SB 257731: humanized anti-Factor IX mAb, heavy chain F9HZHC 1-1 (SEQ ID NO: 52), light chain F9HZLC 1-3 (SEQ ID NO: 78) (antibody, V domains shown)
VH: QVQLVQSGSELKKPGASVKVSCKASGYTFTNYGMNWVRQAPGQGLKWMGWINTRNGKSTYVDDFKGRFVFSLDSSVSTAYLQISSLKADDTAVYYCTREGNMDGYFPFTYWGQGTLVTVSS
VL: MGWSCIILFLVATATGVHSQIVLTQSPATLSLSPGERATLSCRASSSVNYMHWYQQRPGQAPKPWIYATSNLASGVPARFSGSGSGTDYTLTISSLEPEDFAVYYCQQWSINPRTFGGGTKVEIK
In the case of B6, in experiment [1], the kass was found to be 920000 M⁻¹ s⁻¹ and the kdiss is 0.00099 s⁻¹. Further, in experiment [2], the “effect on aPTT (FIG. 8)” value is recorded as “modest effect”.

B7: SB 249416: humanized anti-Factor IX mAb, heavy chain F9HZHC 1-1 (SEQ ID NO: 52), light chain F9HZLC 1-2 (SEQ ID NO: 62) (antibody, V domains shown)
VH: QVQLVQSGSELKKPGASVKVSCKASGYTFTNYGMNWVRQAPGQGLKWMGWINTRNGKSTYVDDFKGRFVFSLDSSVSTAYLQISSLKADDTAVYYCTREGNMDGYFPFTYWGQGTLVTVSS
VL: EIVLTQSPATLSLSPGERATLSCRASSSVNYMHWYQQRPGQAPKPWIYATSNLASGVPARFSGSGSGTDYTLTISSLEPEDFAVYYCQQWSINPRTFGGGTKVEIKR
For the molecule B7, in experiment [1], the kass stood at 520000 M⁻¹ s⁻¹ and the kdiss came to 0.00041 s⁻¹. Moreover, the “effect on aPTT (FIG. 8)” value in experiment [2] is listed as “modest effect”.

B8: Chf9: mouse-human chimeric antibody directed against human Factor IX, chains F9CHLC and F9CHHC with BC2 variable regions (antibody)
heavy: QIQLVQSGPELKKPGETVKISCKASGYTFTNYGMNWVKQAPGKGLKWMGWINTRNGKSTYVDDFKGRFAFSLESSASTANLQIDNLKDEDTATYFCTREGNMDGYFPFTYWGQGTLVTVSA
light: QIVLSQSPAILSASPGEKVTMTCRASSSVNYMHWYQQKPGSSPKPWIYATSNLASGVPARFSGSGSGTSYSLTISRVEAEDAATYYCQQWSINPRTFGGGTKLEIK
As to B8, in experiment [1], the kass was found to be 240000 M⁻¹ s⁻¹ and the kdiss amounted to 0.0003 s⁻¹.
